Experimental data reported in paper PMC13376213 (2026).
Where a chain is given by its changes, count along the chain named. Names may count otherwise. * marks the point of attachment. FITC = O=C1OC2(c3ccc(O)cc3Oc3cc(O)ccc32)c2ccc(NC(=S)*)cc21

Key:
[1] = target: T1, USP33 DUSP2 domain, tag cleaved (for FP) (human, UniProt Q8TEY7 1-942); assay: FP
T1 chain: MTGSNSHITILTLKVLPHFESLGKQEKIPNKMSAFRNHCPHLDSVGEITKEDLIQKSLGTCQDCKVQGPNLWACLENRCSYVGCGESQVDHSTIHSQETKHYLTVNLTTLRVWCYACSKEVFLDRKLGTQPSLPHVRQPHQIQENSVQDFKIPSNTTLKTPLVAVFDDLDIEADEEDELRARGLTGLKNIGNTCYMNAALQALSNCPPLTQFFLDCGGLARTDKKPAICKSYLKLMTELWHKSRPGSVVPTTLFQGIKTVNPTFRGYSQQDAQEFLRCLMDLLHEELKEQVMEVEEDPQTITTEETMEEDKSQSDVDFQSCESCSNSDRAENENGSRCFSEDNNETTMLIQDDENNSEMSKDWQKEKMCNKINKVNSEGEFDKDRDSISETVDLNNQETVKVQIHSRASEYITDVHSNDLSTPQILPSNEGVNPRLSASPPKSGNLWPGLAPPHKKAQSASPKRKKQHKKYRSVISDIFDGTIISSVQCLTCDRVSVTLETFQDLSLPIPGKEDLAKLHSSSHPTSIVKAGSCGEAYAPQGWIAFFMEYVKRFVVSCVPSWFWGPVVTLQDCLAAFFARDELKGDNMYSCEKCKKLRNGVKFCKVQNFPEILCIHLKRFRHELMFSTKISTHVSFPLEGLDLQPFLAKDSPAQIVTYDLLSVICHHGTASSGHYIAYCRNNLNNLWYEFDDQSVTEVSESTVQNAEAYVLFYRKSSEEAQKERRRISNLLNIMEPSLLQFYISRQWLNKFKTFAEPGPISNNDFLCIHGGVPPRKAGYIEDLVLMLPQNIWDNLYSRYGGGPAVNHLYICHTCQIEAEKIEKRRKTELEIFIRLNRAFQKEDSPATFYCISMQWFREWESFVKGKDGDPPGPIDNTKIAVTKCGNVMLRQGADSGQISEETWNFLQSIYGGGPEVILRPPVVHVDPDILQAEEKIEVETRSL

[2] = target: USP20 DUSP2 domain, tag cleaved (for FP) (human); assay: FP
[3] = target: T2, USP20 DUSP2 domain N805A (for FP) (human); assay: FP
T2 chain: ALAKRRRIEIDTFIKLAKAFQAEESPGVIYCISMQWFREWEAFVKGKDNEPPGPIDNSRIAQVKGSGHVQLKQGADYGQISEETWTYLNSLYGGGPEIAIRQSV

[4] = target: T3, USP20 DUSP2 domain K833E/K835E (for FP) (human); assay: FP
T3 chain: T2 chain with A17N, K45E, K47E

USP22 zf-UBP = target: T4, USP22 zf-UBP (Homo sapiens, UniProt Q9UPT9); assay: fluorescence polarization (direct for FITC probes, competitive otherwise)
T4 chain: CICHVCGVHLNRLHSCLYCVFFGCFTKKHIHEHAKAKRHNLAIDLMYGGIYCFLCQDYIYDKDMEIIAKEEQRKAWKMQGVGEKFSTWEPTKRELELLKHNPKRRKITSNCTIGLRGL

[5] = target: USP20 zf-UBP domain, tag cleaved (for FP) (human); assay: FP
[6] = target: T5, USP33 zf-UBP domain, tag cleaved (for FP) (human, UniProt Q8TEY7 1-942); assay: FP
T5 chain: T1 chain

Sequence of USP20 zf-UBP domain, tag cleaved (for FP) (human) (chain, as listed by the source): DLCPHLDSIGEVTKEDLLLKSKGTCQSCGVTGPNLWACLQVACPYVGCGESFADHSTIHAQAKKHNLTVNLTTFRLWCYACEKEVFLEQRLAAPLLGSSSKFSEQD

B1: HIF2A peptide 531-548 (peptide)
peptide: Ac-PYIPMDGEDFQLSPICPE-NH2
B1 was tested, and the Kd [1] was > 1000 µM and the Kd [2] was > 200 µM.

B2: FITC-GPR137B 348-362 (peptide)
chain: {FITC}-SDDDLAWNIAPQGLQ-NH2
With B2 the Kd [3] was > 130 µM, the Kd [2] was 5 µM and the Kd [4] was > 290 µM.

B3: HIF1A 564-581 (peptide)
chain: Ac-PYIPMDDDFQLRSFDQLS-NH2
With B3 the Kd [2] was 19 µM.

B4: GPR137B_(348-362) peptide (peptide)
peptide: Ac-SDDDLAWNIAPQGLQ-NH2
For B4, the Kd [1] was > 200 µM and the Kd [2] was 10 µM.

B5: ATXN7 (peptide)
chain: LPSPEVMLGQSWNLWVE
modifications: FITC label on probe peptides (FITC- prefix)
B5 was tested, and the Kd (USP22 zf-UBP) was 58.4 µM.

B6: CEP192 2073-2087 (peptide)
chain: Ac-LQPSSKASLESTSDL-NH2
B6 gave a Kd [5] of 37 µM and a Kd [6] of 14 µM.

B7: CCDC88B_(947-961) peptide (peptide)
peptide: Ac-QLEEELFQLRQGPAG-NH2
Work on B7 yielded a Kd [1] of 40 µM and a Kd [2] of 22 µM.

B8: CCP110_(582-593) peptide (peptide)
peptide: Ac-EKVKRRLDLDID-NH2
B8 was tested, and the Kd [5] was > 500 µM and the Kd [6] was > 250 µM.

B9: IRAG1 302-316 (peptide)
chain: Ac-TNSSGKMALNSPQPG-NH2
Work on B9 yielded a Kd [5] of 9 µM and a Kd [6] of 8 µM.

B10: MFSD2B_(395-409) peptide (peptide)
peptide: Ac-DVVDDFQLQHRHGPG-NH2
Binder B10 has a Kd [1] of 0.8 µM and a Kd [2] of 45 µM.

B11: USP19 874-888 (peptide)
chain: Ac-PFQPGRMALESQSPG-NH2
With B11 the Kd [6] was 41 µM.

B12: HIF1A 564-581 D571K (peptide)
chain: Ac-PYIPMDDKFQLRSFDQLS-NH2
Binder B12 has a Kd [2] of 85 µM.

B13: HIF1A 564-581 L574A (peptide)
chain: Ac-PYIPMDDDFQARSFDQLS-NH2
With B13 the Kd [2] was 89 µM.

B14: HIF1A 564-581 D570K (peptide)
chain: Ac-PYIPMDKDFQLRSFDQLS-NH2
B14 showed a Kd [2] of 19 µM.

B15: ATXN7L2_18-34 (peptide)
chain: VPSLDDFAGQSWSSWVE
modifications: FITC label on probe peptides (FITC- prefix)
With B15 the Kd (USP22 zf-UBP) was 19.4 µM.
